From patent US20070275898A1 (CENTRE NATIONAL DE LA RECHERCHE SCIENTIFIQUE, published 2007)

Target: β subunit of DNA polymerase III of Escherichia coli (Escherichia coli, UniProt P0A988 1-366)
Experiment: cell-based or functional assay

β subunit of DNA polymerase III of Escherichia coli, sequence (P0A988 whole entry): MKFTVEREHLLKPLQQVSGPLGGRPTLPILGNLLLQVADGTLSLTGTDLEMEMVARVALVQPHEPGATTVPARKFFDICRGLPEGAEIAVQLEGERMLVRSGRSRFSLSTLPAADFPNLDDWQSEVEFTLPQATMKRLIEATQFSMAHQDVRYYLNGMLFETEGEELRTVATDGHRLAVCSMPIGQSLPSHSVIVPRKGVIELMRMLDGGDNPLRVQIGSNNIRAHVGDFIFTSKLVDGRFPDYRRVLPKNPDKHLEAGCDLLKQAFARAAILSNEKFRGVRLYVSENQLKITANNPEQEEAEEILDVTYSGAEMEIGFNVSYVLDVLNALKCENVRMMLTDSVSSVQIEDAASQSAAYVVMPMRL

B1: P16 peptide, the 16 last residues of Pol IV DNA polymerase of E. coli (peptide)
peptide: VTLLDPQMERQLVLGL
β-dependent Pol IV activity (ratio of β-dependent to β-independent polymerase activities): ~30 fold decrease
